Consider 1 substance from article PMC2171822.

The assay addresses tetramethylrhodamine-labeled microtubule (tubulin purified from bovine brain) (bovine) (UniProt Q6B856). In words: fluorescence microscopy of kinesin-coated beads binding to a single microtubule.

Usually koff stands for the first-order rate constant of dissociation. Lower therefore signals a long-lived complex. In turn, “native kinesin purified from bovine brain (complex)” registered an average binding frequency of 0.018 μm^−1 s^−1 and a koff of 0.004 s⁻¹.
